{
  "source": "patent US20200055896",
  "key": {"[1]": {"system": "aP probe: FGF21-based peptide with D-alanine at P2 (VaPSQG)"}, "[2]": {"system": "GP probe: fluorescence-quenched peptide of the region flanking the C-terminal human FGF21 cleavage site (VGPSQG)"}},
  "data": [
    {"substance": "FAP in human serum", "values": [
      {"measurement": "cleavage of the aP probe in immunodepleted human serum", "setting": "[1]", "value": "signal is lost after FAP immunodepletion from human serum, but not in control IgG-immunodepleted serum"}
    ]},
    {"substance": "Human DPPII/DPP7 (3438-SE)", "values": [
      {"measurement": "cleavage of fluorescence-quenched peptide (FRET-quench assay), peptidase at 2.5 µg/ml", "setting": "[1]", "value": "did not exhibit an ability to cleave the aP probe"}
    ]},
    {"substance": "PREP in mouse plasma", "values": [
      {"measurement": "cleavage of the GP probe in mouse plasma, with cpd60 and KYP-2047", "setting": "[2]", "value": "PREP has a smaller but significant contribution"}
    ]}
  ]
}
